Key:
Details in all cases: both partners purified
AAV-PHP.eB capsid [1] = target: T1, AAV-PHP.eB capsid (adeno-associated virus serotype 9 (AAV9), UniProt Q6JC40 1-736, 587-588 AQ to DGTLAVPFK); test: pull-down; 6xHis-tagged bait (AAVR-PKD2 100-200 pmol or His-Fc-LY6A 30-60 pmol) on Ni-NTA resin, prey AAVs (0.05 pmol); DPBS with 20 mM imidazole, 1 hr at 4 C; eluted with 150 mM imidazole; western blot with anti-VP1/VP2/VP3 and anti-6xHis
T1 construct: AAV9 capsid protein VP1 with the PHP.eB VR-VIII 7-mer insertion TLAVPFK between residues 588 and 589 and two flanking point mutations (587-588 AQ to DG); capsid holds VP1, VP2 and VP3; Whole virus capsid packaging an eGFP genome; VP1/VP2/VP3 assembly; source: HEK293T, triple-transfected (pHelper, capsid and genome plasmids), purified (iodixanol gradient)

eB.24 capsid [2] = target: T2, eB.24 capsid (adeno-associated virus serotype 9 (AAV9), UniProt Q6JC40 1-736, S454A | Q456T | 587-588 AQ to DGTLAVPFK); test: as above
T2 construct: capsid holds VP1, VP2 and VP3; Whole virus capsid packaging an eGFP genome; VP1/VP2/VP3 assembly; also called PHP.eB.24; source: HEK293T, triple-transfected (pHelper, capsid and genome plasmids), purified (iodixanol gradient)

AAV.CAP-B10 capsid [3] = target: T3, AAV.CAP-B10 capsid (adeno-associated virus serotype 9 (AAV9), UniProt Q6JC40 1-736, 452NGSGQNQ458 to 452DGAATKN458 | 587-588 AQ to DGTLAVPFK); test: as above
T3 construct: capsid holds VP1, VP2 and VP3; Whole virus capsid packaging an eGFP genome; VP1/VP2/VP3 assembly; source: HEK293T, triple-transfected (pHelper, capsid and genome plasmids), purified (iodixanol gradient)

AAV9-B10 capsid = target: T4, AAV9-B10 capsid (adeno-associated virus serotype 9 (AAV9), UniProt Q6JC40 1-736, 452NGSGQNQ458 to 452DGAATKN458); test: BLI; BLItz; biotin-conjugated CaptureSelect AAV9 nanobody on streptavidin biosensor, AAV (5x10^12 vg/ml) loaded as biolayer, MBP-tagged PKD2 as analyte at 1.25-80 uM, 120 s association and 120 s dissociation; DPBS, 1% BSA, 0.02% Tween-20; Kd averaged from 3 experiments
T4 construct: AAV9 capsid protein VP1 with the CAP-B10 7-mer in VR-IV (452-458 DGAATKN) and unaltered AAV9 VR-VIII; capsid holds VP1, VP2 and VP3; Whole virus capsid packaging an eGFP genome; VP1/VP2/VP3 assembly; source: HEK293T, triple-transfected (pHelper, capsid and genome plasmids), purified (iodixanol gradient)

AAV9-X1.1 capsid = target: T5, AAV9-X1.1 capsid (adeno-associated virus serotype 9 (AAV9), UniProt Q6JC40 1-736, 452NGSGQNQ458 to 452DGAATKN458 | GNNTRSV inserted between 588 and 589); test: as above
T5 construct: AAV9 capsid protein VP1 with the AAV9-X1 VR-VIII 7-mer insertion GNNTRSV between residues 588 and 589 and the CAP-B10 7-mer in VR-IV (452-458 DGAATKN); capsid holds VP1, VP2 and VP3; Whole virus capsid packaging an eGFP genome (SCP1 promoter); VP1/VP2/VP3 assembly; source: HEK293T, triple-transfected (pHelper, capsid and genome plasmids), purified (iodixanol gradient)

AAV-PHP.eB capsid [4] = target: T1, AAV-PHP.eB capsid; test: as above
AAV9-X1 capsid = target: T6, AAV9-X1 capsid (adeno-associated virus serotype 9 (AAV9), UniProt Q6JC40 1-736, GNNTRSV inserted between 588 and 589); test: as above
T6 construct: capsid holds VP1, VP2 and VP3; Whole virus capsid packaging an eGFP genome; VP1/VP2/VP3 assembly; source: HEK293T, triple-transfected (pHelper, capsid and genome plasmids), purified (iodixanol gradient)

AAV9 (wild-type) capsid = target: T7, AAV9 (wild-type) capsid (adeno-associated virus serotype 9 (AAV9), UniProt Q6JC40 1-736); test: as above
T7 construct: AAV9 capsid protein VP1; VR-IV 452-458 NGSGQNQ, VR-VIII 587-590 AQAQ; Whole virus capsid packaging an eGFP genome; also called wild-type AAV9; source: HEK293T, triple-transfected (pHelper, capsid and genome plasmids), purified (iodixanol gradient)

eB.24 capsid [5] = target: T2, eB.24 capsid; test: as above
AAV.CAP-B10 capsid [6] = target: T3, AAV.CAP-B10 capsid; test: as above

Binder	binding result (AAV-PHP.eB capsid [1])	binding result (eB.24 capsid [2])	binding result (AAV.CAP-B10 capsid [3])	Kd (AAV9-B10 capsid) [µM]	Kd (AAV9-X1.1 capsid) [µM]	Kd (AAV-PHP.eB capsid [4]) [µM]	Kd (AAV9-X1 capsid) [µM]	Kd (AAV9 (wild-type) capsid) [µM]	Kd (eB.24 capsid [5]) [µM]	Kd (AAV.CAP-B10 capsid [6]) [µM]
LY6A (AA 1-109) derived from C57BL/6 mice with Fc (human IgG1), Myc and 6xHis tags (Fc fusion, mouse (C57BL/6), UniProt P05533 27-109, looked up, signal peptide in the construct; LY6A, C57BL/6 mouse, AA 1-109; also called His-Fc-LY6A; source: HEK293T, transiently transfected, secreted into conditioned media, purified (Ni-NTA)) LECYQCYGVPFETSCPSITCPYPDGVCVTQEAAVIVDSQTRKVKNNLCLPICPPNIESMEILGTKVNVKTSCCQEDLCNVAVP	binds	binds	binds							
PKD2 domain of AAVR (AA 401-498) fused to maltose binding protein and 6xHis (domain or fragment, AAV receptor (AAVR), polycystic kidney disease domain 2 (PKD2), AA 401-498; Construct for biolayer interferometry; monomer fraction from SEC was used; also called AAVR-PKD2; MBP-tagged AAVR-PKD2; source: E. coli BL21 (DE3)-RIPL, purified (amylose resin, Superdex 200 SEC)) EPRKNRPPIAIVSPQFQEISLPTTSTVIDGSQSTDDDKIVQYHWEELKGPLREEKISEDTAILKLSKLVPGNYTFSLTVVDSDGATNSTTANLTVNKA				47	19	14	6	11	24	61

Source: PMC13267735, “Structural basis of liver de-targeting and neuronal tropism of CNS-targeted AAV capsids” (Molecular therapy : the journal of the American Society of …, 2026)
